Results as given in the supplement of paper PMC9170038.

Assays:
MS2 coat protein [1] = test: apparent KD of MS2 coat protein, switch OFF state (with FMN for OFF switches, without FMN for ON switches); designed switch direction (-1 OFF switch, 1 ON switch): 1; higher = weaker reporter binding; details: FMN input: 0 or 200 uM; Eterna round: R93 (includes R88 designs)
In short: (§1)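 Designed RNA switches, transcribed on-chip from Illumina sequencing clusters, were titrated with SNAP-549-labelled MS2 coat protein from 0.7 or 1.5 nM to 3 µM in twofold steps. The solution was 100 mM Tris-HCl pH 7.5, 80 mM KCl, 4 mM MgCl2, with constant ligand or without it. Apparent KD is the median over each design's normalised cluster binding-curve fits.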

MS2 coat protein [2] = test: apparent KD of MS2 coat protein, switch ON state; designed switch direction (-1 OFF switch, 1 ON switch): 1; higher = weaker reporter binding; details: FMN input: 0 or 200 uM; Eterna round: R93 (includes R88 designs)
In short: as §1

Sequence	apparent KD of MS2 coat protein (MS2 coat protein [1])	apparent KD of MS2 coat protein (MS2 coat protein [2])
AAAAGACAUGAGGAUCACCCAUGUCUUCGGACAUGAGGAUAUGUACAGACUUCGGUCUGUACAGAAGGCAUGAAAA [SS1 - 1065]	48.3 nM	18.5 nM
AGGAAACAUGAGGAUCACCCAUGUAGAAAUAUGGGAGGAUAUACAAAGACGAAAGUCAAAGUAGAAGGCCUAAAAG [76%, Meechl 1]	63 nM	22.8 nM
AAAUUACAUGAGGAUCACCCAUGUUUAAAAAAUAUAGGAUAUGUAAAAAAAAAAAAAAAAACAGAAGGGUAAAAAA [I 'NO' this state well]	25.4 nM	25.1 nM
AAGCAACAUGAGGAUCACCCAUGUAGCAGGGUCAGAGGAUAUUUGAGCUUGGUAAGGGUUAAAGAAGGUUGAUAAA [Alabeti]	55.5 nM	138 nM
AGGAGACAUGAGGAUCACCCAUGUGCACGUGGACGAGGAUAUGCUAGUAGAAGAUAGAAUGCAGAAGGCGUAAGAA [Mod of JR]	29.9 nM	48.4 nM
GAUUACAUAGUUCAGGAUAUAUGAAUAGUCACAUGAGGAUCACCCAUGUCCAUUUAUAUGGGCACAUAGAAGGGAGGUAGGGAUC [Mat - Same state - Malcolm Mod - D148]	571 nM	392 nM
ACUACACAUGAGGAUCACCCAUGUCAGGUGGGACUAGGAUAUUAUAAACCAGAGUAAAAAUAAGAAGGAGUAGAAA [JR_SS001_Sub308]	46.6 nM	51.8 nM
UUACAGCACGGGUAGGAUAUGUAGGGUGGUACAUGAGGAUCACCCAUGUAUCCACCCUUCUAACGGCAGAAGGGCCUGUCGCUGC [Riarve]	15.4 nM	16.9 nM
AAUAUAUUAAGUGAGGAUAUCAAGAAAAAAACAUGAGGAUCACCCAUGUGGGAAACACGGUAGGGUGAGAAGGUACUUAAUAUAU [Samwise Clockwise 20 - Jieux - Same State 2]	27.6 nM	504 nM
GGGAGGAAGAGAGAGGAUAUCCAAAGGAAAACAUGAGGAUCACCCAUGUAAAAGGUAGGAAAUUGGGAGAAGGCUCAAAAGACGG [salish99-ss2-047]	52.5 nM	28.1 nM
AAUACACAUGGUCAGGAUAUCGCAGCUAGGACAUGAGGAUCACCCAUGUAGCAUGUAACUGAAACCGAGAAGGGACAGGGUGAUC [JR_SS002_Sub412]	85.1 nM	61.4 nM
AAGAAACAUGAGGAUCACCCAUGUGAUAAUAUGGGAGGAUAUACAAGGACGUAAGUCAAGGUAGAAGGCCUAAGAA [Mat - Same State 1 - Meechl mod - D140]	61.6 nM	30.5 nM
UAUCAUUACACGAAGGAUAUCGAAAAAAGAACAUGAGGAUCACCCAUGUAAAAUAAAACACAGAACGAGAAGGUCGAGGGUGAAG [JR_SS002_Sub701]	34.2 nM	15.8 nM
AAAAUACAUGAGGAUCACCCAUGUGAAAAUAUGGAAGGAUAUACGAAAAAUAAAUAAAACGUAGAAGGUCUAAAAA [SS! 1 MT 3]	38.4 nM	23.8 nM
UGGAGACAUGAGGAUCACCCAUGUGAGAAGAGGCGAGGAUAUCGAAAAAAAAAAAAAAAACGAGAAGGCGCGAGAC [salish99-SS1-010]	41.2 nM	33.3 nM
AAAUAAAAAAGGGAGGAUAUUCAUGUGAAAACAUGAGGAUCACCCAUGUAAAAAAAUAAAAAUAAAAAGAAGGAAAAAUAAAAAA [SS2: 80 No MS2]	151 nM	6.62 nM
